The source of these data is the supplement of paper PMC10201428.

The test system of data set [1] is VchCAST RNA-guided transposition machinery (E. coli BL21(DE3) host, lacZ target). Nature of the data set: relative integration efficiency (T-RL orientation) vs wild-type transposon end (log2 (normalized fold change)); transposon end mutated: left end; higher = more efficient transposition. The method in brief:
(§1)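 A T7-driven effector plasmid encoding a CRISPR array, tniQ-cas8-cas7-cas6 and tnsA-tnsB-tnsC was co-transformed into E. coli BL21(DE3) together with a pUC57 mini-transposon donor holding barcoded pools of 1549 left-end or 1849 right-end variants. Transformants were plated with 0.1 mM IPTG at 37°C for 18 h. Illumina sequencing of PCR-amplified input plasmids and genomic integration junctions gave barcode abundances, and relative integration efficiency is their output/input fold change, normalised to reference barcodes and log-transformed.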

The test system is the same in data set [2]. Nature of the data set: relative integration efficiency (T-LR orientation) vs wild-type transposon end (log2 (normalized fold change)); transposon end mutated: left end; higher = more efficient transposition. The gist of the method:
as §1

± gives the standard deviation of the averaged measurements.

On to “AATGTTGTTGATGCAACCATAAAGTGATATTTAATAACTTCGTATAATGTATCGTATACGAACGGTACAACCATATATTGATATCTCACAAAACAACCATAAGTTGATATTTTTGTGAATCGAGTATTTCAGCAAAACTACTGCAGTAAGAA”, for which the figures for the “relative integration efficiency (log2)” value in data set [1] and in data set [2] were -3.32 ± 0.82 and -4.18 ± 0.64, respectively.
The matching figures for “AATGTTGTTGATGCAACCATAAAGTGATATTTAATAATTATTTATAATCAGCAACTTAACCACAAAACAACCATATATTGATATCGACACCCCACCAACGCCTGGTCGCGGGGGTGTCCGATCTGATTTCAGCAAAACTACTGCAGTAAGAA”: -2.44 ± 0.91 and -1.19 ± 2.
As to “AATGTTGTTGATGCAACCATAAAGTGATATTTAATAATTATTTATAATCAGCAACTGCCAACACCCCACCAACGCGCGGTCGCGAGACACCCCACCAACGCCTGGTCGCGGGGGTGTCCGATCTGATTTCAGCAAAACTACTGCAGTAAGAA”, the “relative integration efficiency (log2)” value was -6.35 ± 0.99 in data set [1] and -3.03 ± 0.58 in data set [2].
The matching figures for “AATGTTGTTGATGCAACCATAAAGTGATATTTAATAATTATTTATAATCAGCAACTTAACCACAAAACAACCATATATTGATATCTCACACCCACCAACGCCTGGTCGCGGGGGTGTCCGATCTGATTTCAGCAAAACTACTGCAGTAAGAA”: -2.48 ± 0.87 and -1.23 ± 1.7.
The matching figures for “AATGTTGTTGATGCAACCATAAAGTGATATTTAATAATCAACCATAAAGTGATATTTAACTTAACCACAACCATATATTGATATCTCACAAAACAACCATAAGTTGATATTTTTGTGAATCGAGTATTTCAGCAAAACTACTGCAGTAAGAA”: -2.68 ± 0.72 and -4.25 ± 0.83.
For “AATGTTGTTGATGCAACCATAAAGTGATATTTAATAATTATTTATAATCAGCAACTTAACCACAAAATGTGACAACCATATATTGATATCTCACAAAACAACCATAAGTTGATATTTTATCGAGTATTTCAGCAAAACTACTGCAGTAAGAA”, the “relative integration efficiency (log2)” value in data set [1] is -4.95 ± 0.52; in data set [2], -4.36 ± 1.1.
Consider “AATGTTGTTGATGCAACCATAAAGTGATATTTAATAACAACCATATATTGATATCTCTTATTTATAATCAGCAACTTAACCACAAAAACAAAACAACCATAAGTTGATATTTTTGTGAATCGAGTATTTCAGCAAAACTACTGCAGTAAGAA”, for which the “relative integration efficiency (log2)” value in data set [1] was -3.58 ± 1; in data set [2], -2.07 ± 1.8.
Consider “AATGTTGTTGATGCAACCATAAAGTGATATTTAATAATTATTTATAATCAGCAACTTAACCACAAAACAACCATATATTGATATCTCACAAAACAACCATAAGTTTCGCGGGGGTGTCCGATCTGATTTCAGCAAAACTACTGCAGTAAGAA”, for which the “relative integration efficiency (log2)” value was -2.22 ± 0.95 in data set [1] and -2.11 ± 1.5 in data set [2].
The matching figures for “AATGTTGTTGATGCAACCATAAAGTGATATTTAATAATTATTTATAATACTACCAGGCCAACACCCCACCAACGCGCGGTCGCGAGACACCCCACCAACGCCTGGTCGCGGGGGTGTCCGATCTGATTTCAGCAAAACTACTGCAGTAAGAA”: -6.5 ± 1.2 and -3.51 ± 1.3.
The matching figures for “AATGTTGTTGATGCAACCATAAAGTGATATTTGCTAGCACTATACCTAGGACTGAGCTAGCCGTCAACAACCATATATTGATATCTCACAAAACAACCATAAGTTGATATTTTTGTGAATCGAGTATTTCAGCAAAACTACTGCAGTAAGAA”: -5.87 ± 1 and under -10.
The matching figures for “TTTTGTGTTGAAACAACCATAAAGTGATAACAACGAATCAATTAAAATCATAGGCTTAATCGAAAAACAACCATATCTTGATATCGCACAAAACAACCATAAGTTGATATTTTGGTGAAAAGGATATTCCAACCTTCATAGTTTAGTAAGAA”: -0.684 ± 0.39 and -0.749 ± 0.52.
“AATGTTGTTGATGCAACCATAAAGTGATATTTAATAATGCGGGCGCCGACTACCAGGCCAACACCCCACCAACGCGCGGTCGCGAGACACCCCACCAACGCCTGGTCGCGGGGGTGTCCGATCTGATTTCAGCAAAACTACTGCAGTAAGAA”: the “relative integration efficiency (log2)” value in data set [1] was -7.04 ± 1.2; in data set [2], -5.9 ± 3.3.
The matching figures for “AATGTTGTTGATACAACCATAAAATGATAATTACACCCATAAATTGATAATTATCACACCCATAAATTGATATTGCTGTGAATCGAGTATTTCAGCAAAACTACTGCAGTAAGAAAGTTACTTCGTGGTATGGGAGGATCAAGGAGCCAATA”: -2.21 ± 0.71 and 3.47 ± 0.79.
On to “AATGTTGTTGATGCAACCATAAAATGATAATTAATAATTATTTATAATCAGCAACTTAACCACAAAACAACCATAAAATGATAATTAACAAAATAATTATCATTTTATGGTTGTGTGAATCGAGTATTTCAGCAAAACTACTGCAGTAAGAA”, for which the “relative integration efficiency (log2)” value in data set [1] was -3.63 ± 0.84; in data set [2], 0.0912 ± 1.6.
On to “AATGTTGTTGATGCAACCATAAAGTGATATTTAATAATTATTTATAATCAGCAACTTAACCAACCCCACCAACGCGCGGTCGCGAGACACCCCACCAACGCCTGGTCGCGGGGGTGTCCGATCTGATTTCAGCAAAACTACTGCAGTAAGAA”, for which the “relative integration efficiency (log2)” value in data set [1] is -5.95 ± 1.6; in data set [2], -4.2 ± 0.92.
The matching figures for “AATGTTGTTGATGCAACCATAAAGTGATATTTAATAATTATTTATAATCAGCAACTTAACCACAAAACAACCATATATTGATACAAAACAACCATAAGTTGATATTTTTGTGAATCGAGTATTTCAGCAAAACTACTGCAGTAAGAAAGTTA”: -4.34 ± 0.99 and -2.08 ± 1.7.
The matching figures for “AATGTTGTTGATGCAACCATAAAGTGATATTTAATCAACCATAAAGTGATATTTAACTTAACCACAACAACCATATATTGATATCTCACAAAACAACCATAAGTTGATATTTTTGTGAATCGAGTATTTCAGCAAAACTACTGCAGTAAGAA”: -4.54 ± 1.2 and -0.257 ± 1.2.
For “AATGTTGTTGATGCAACCATAAAGTGATATTTAATAATTATTTATAATCAGCACAGGCCAACACCCCACCAACGCGCGGTCGCGAGACACCCCACCAACGCCTGGTCGCGGGGGTGTCCGATCTGATTTCAGCAAAACTACTGCAGTAAGAA”, the entries for the “relative integration efficiency (log2)” value in data set [1] and in data set [2] were -7.2 ± 1.5 and -3.578 ± 0.033, respectively.
“AATGTTGTTGATGCAACCATAAAGTGATATTTAATAATTATCAACCATATATTGATATCTCTTATAATCAGCAACTTAACCACAAAAACAAAACAACCATAAGTTGATATTTTTGTGAATCGAGTATTTCAGCAAAACTACTGCAGTAAGAA”: the “relative integration efficiency (log2)” value in data set [1] is -4.57 ± 1.7; in data set [2], -2.13 ± 1.5.
Regarding “AATGTTGTTGATGCAACCATAAAATGATAATTAATAATTATTTATAATCAGCAACTTAACCACAAAACAACCATATATTGATATCTCACAAAAGTTGGTATTCAACTATAAAATGTGAATCGAGTATTTCAGCAAAACTACTGCAGTAAGAA”, the “relative integration efficiency (log2)” value was -2.59 ± 1.1 in data set [1] and -0.862 ± 0.91 in data set [2].
The matching figures for “AATGTTGTTGATGCAACCATAAAGTGATATTTAATAATGGAATTGTGAGCGGATAACAATTACAAAACAACCATATATTGATATCTCACAAAACAACCATAAGTTGATATTTTTGTGAATCGAGTATTTCAGCAAAACTACTGCAGTAAGAA”: -4.89 ± 0.52 and -3.41 ± 0.6.
The matching figures for “AATGTTGTTGATGCAACCATAAAGTGATATTTAATAATTATTTATAATCAGCAACTTAACCACAAAACAACCATATATTGATATCTCACAAAACAACCATAAGTTGATATGTGAATCGAGTATTTCAGCAAAACTACTGCAGTAAGAAAGTT”: -0.276 ± 0.26 and -0.00636 ± 0.11.
Consider “AATGTTGTTGATGCACCCATAAATTGATATTGCATAATTATTTATAATCAGCAACTTAACCACAAAACACCCATAAATTGATAATTAACAAAAGTTGGTATTCAACTATAAAATGTGAATCGAGTATTTCAGCAAAACTACTGCAGTAAGAA”, for which the “relative integration efficiency (log2)” value is -3.57 ± 1.4 in data set [1] and -1.55 ± 1.2 in data set [2].
For “AATGTTGTTGATGCAACCATAAAGTGATATTTAACAAGACTAACATTATTAGTAACTGAGAACTATGCAACCATATATTGATATCTCACAAAACAACCATAAGTTGATATTTTTGTGAATCGAGTATTTCAGCAAAACTACTGCAGTAAGAA”, the “relative integration efficiency (log2)” value in data set [1] was -2.4 ± 0.87; in data set [2], -2.85 ± 0.45.
The matching figures for “AATGTTGTTGATGCAACCATAAAGTGATATTTAATAATTATTTATAATCAGCACAACCATATATTGATATCTCACTTAACCACAAAAACAAAACAACCATAAGTTGATATTTTTGTGAATCGAGTATTTCAGCAAAACTACTGCAGTAAGAA”: -6.85 ± 0.48 and under -10.
The matching figures for “AATGTTGTTGATGCAACCATAAAGTGATATTTAATAACAACCATAAAGTGATATTTAACTTAACCACCAACCATATATTGATATCTCACAAAACAACCATAAGTTGATATTTTTGTGAATCGAGTATTTCAGCAAAACTACTGCAGTAAGAA”: -4.66 ± 1.1 and -3.39 ± 0.26.
The matching figures for “AATGTTGTTGATGCAACCATAAAGTGATATTTAATAATTATTTATAATCAGCAACTTAACCACAAAACAACCATATATTGATATCTCACAAAACAACCATAAGGGTCGCGGGGGTGTCCGATCTGATTTCAGCAAAACTACTGCAGTAAGAA”: -1.87 ± 0.93 and -1.56 ± 1.
Consider “AATGTTGTTGATGCAACCATAAAGTGATATTTAAAATGTGAGCGAGTAACAACCCTTAACCACAAAACAACCATATATTGATATCTCACAAAACAACCATAAGTTGATATTTTTGTGAATCGAGTATTTCAGCAAAACTACTGCAGTAAGAA”, for which the “relative integration efficiency (log2)” value in data set [1] is -2.19 ± 0.48; in data set [2], -0.988 ± 0.33.
Regarding “AATGTTGTTGATGCAACCATAAAGTGATCGGGCCGCCGGCGGGCGCCGACTACCAGGCCAACACCCCACCAACGCGCGGTCGCGAGACACCCCACCAACGCCTGGTCGCGGGGGTGTCCGATCTGATTTCAGCAAAACTACTGCAGTAAGAA”, the results for the “relative integration efficiency (log2)” value in data set [1] and in data set [2] were -8.26 ± 1.7 and -7.44 ± 0.81, respectively.
